Key:
[1] = target: thiopeptolide Ac-Pro-Leu-Gly-thioester-Leu-Leu-Gly-OEt (not provided)

- hydrolysis of the thiopeptolide substrate (Km, kcat) [1]: 270 µM
- Proteoglycan Degradation (µg of Chondroitin Sulfate/h) (µg of Chondroitin Sulfate/h) (proteoglycan): 8
Substance: human stromelysin catalytic domain protein (enzyme)

Reference: patent publication US6284513
